One molecule from PMC10967448, “ApoE Mimetic Peptide COG1410 Kills Mycobacterium smegmatis via Directly Interfering ClpC’s ATPase Activity” (Antibiotics, 2024) can be followed below.

For experiment [1], the target named is T1, ClpC (M. smegmatis AAA+ unfoldase, Clp-ATPase) (M. smegmatis). Kind of experiment: cell-based or functional assay.
Experiment [2] deals with ClpC (S437P) (M. smegmatis). The experiment can be described thus: cell-based or functional assay.
Experiment [3] has as its target T1, ClpC (M. smegmatis AAA+ unfoldase, …). Kind of experiment: SPR; Biacore 8K; ClpC or ClpC (S437P) amine-coupled on a CM5 chip at pH 4.0 (around 6500 RU); COG1410 flowed at 125 to 2000 nM (2-fold dilutions); PBS pH 7.4, 0.05% tween-20, 25 °C, 30 μL/min; 1:1 Langmuir binding model. The note with it: both partners purified. On the technique in general: Surface plasmon resonance follows binding to a sensor surface in real time, without labels.

The target in experiment [4] is T2, ClpC (S437P) (M. smegmatis).
T2 construct: also called ClpC variant; ClpC (S437P) variant; source: E. coli BL21 (DE3), pET28a, purified (IMAC on Ni Sepharose 6 FF, desalting)
Described as above. The conditions noted are these: both partners purified.

Square brackets hold non-standard residues; d marks the D form. Ends that are not written are not given here. Aib = CC(C)(N)C(=O)O

With AS[Aib]LRKL[Aib]KRLL (not fully specified (N-terminus, C-terminus)) [COG1410], in experiment [1], the “ATPase activity of purified ClpC (64 nM) with COG1410, dose series; at 10 μM COG1410 against ClpC alone” value is approximately 3 fold and the “proteolytic activity on FITC-casein in the ClpCP1P2 system with 10 μM COG1410” value came out at 4 fold. Further, in the experiment with ClpC (S437P) [2], the “ATPase activity of purified ClpC (S437P) (64 nM) with 10 μM COG1410 against ClpC alone” value is approximately 7.4 fold and the “proteolytic activity on FITC-casein in the S437PP1P2 system with COG1410 against the control with ClpC alone” value is approximately 7 fold. Moreover, in experiment [3], binding was put at a Kd of 2030 nM, the off-rate (koff) (usually the rate constant with which the complex falls apart) was 0.0117 s⁻¹ and the on-rate constant (kon) (commonly the second-order rate constant of association) amounted to 5780 M⁻¹ s⁻¹. Also, in the experiment with ClpC (S437P) [4], the Kd (in general, the constant that tells how readily two partners part at equilibrium) was 1310 nM; the koff was found to be 0.0119 s⁻¹; the kon was found to be 9900 M⁻¹ s⁻¹.
